In patent CN110642952A (SHANGHAI INST OF BIOLOGICAL PRODUCTS CO LTD, dated 2020):
Changes are numbered by the printed parent chain.

B1: HER3鼠源单克隆抗体1044 (antibody, V domains shown)
VH: EVQLQQSGTELMKPGASVKISCKATGGTFSNYWIDWVKQRPGHGLEWIGEILPGSGGTDYNEKFKGKATFTADTSSNTAYMQLSSLTSEDSAVYYCARDDYDVFAYWGQGTLVTVSS
VL: DIVMTQAAFSNPVTLGTSASISCRSSKSLLHSNGITYLYWYLQKPGQSPQLLIYQMSNLASGVPDRFSSSGSGTDFTLRISRVEAEDVGVYYCAQNLELPWTFGGGTKLEIKR
notes: Mouse monoclonal antibody from hybridoma ascites, purified on protein G; also called HER3抗体1044
B2: HER3鼠源单克隆抗体993 (antibody, V domains shown)
VH: EVKLVESGGGLVKPGGSLKLSCAASGFTFSSYSLSWVRQTPEKRLEWVASITFGGTAYYSDSVKGRFTISRDNARNILYLQMSSLKSEDTAMYYCVRGDGYEDPMDYWGQGTSVTVSS
VL: DIVMTQTTVSLAVSLGQRATISCRASESVDSYGKSFMHWYQQKPGQPPKLLIYRASNLESGIPARFSGSGSRTDFTLTINPVEADDVSTYYCQQSNEDPYTFGGGTKLEIR
notes: Mouse monoclonal antibody from hybridoma ascites, purified on protein G; also called HER3抗体993
B3: HER3鼠源单克隆抗体927 (antibody, V domains shown)
VH: EVQLQQSGPELVKPGASVKISCKASGYSFTSYYIHWVKQRPGQGLEWIGWIFPRSGHTNYNEKFKGKATLTADTSSSTAYMQVSSLTSEDSAVYFCARSRDYYGTNAMDYWGQGTSVTVSS
VL: DIVMTQSPSSLTVTAGEKVTMSCKSSQSLFNSGNQKNYLTWYQQKPGQPPKLLIYWASTRESGVPDRFTGSGSGTDFTLTISSVQAEDLAVYYCQNDYSYPYTFGGGTKLEIKR
notes: Mouse monoclonal antibody from hybridoma ascites, purified on protein G; also called HER3抗体927
B4: HER3鼠源单克隆抗体1050 (antibody, V domains shown)
VH: B3 VH with E1Q, R54G, N59K, Y60C, K63N, G66A, V83L, T105S, M108V
VL: B3 VL with F30L, T69S
notes: Mouse monoclonal antibody from hybridoma ascites, purified on protein G; also called HER3抗体1050

Each binder was assayed against T1, HER3 (human, UniProt P21860 20-643, limits assumed) (assay: ProteOn XPR36 Protein Interaction Array System (SPR)).
T1 construct: also called HER3抗原; HER3蛋白
T1 sequence (P21860 20-643 limits assumed): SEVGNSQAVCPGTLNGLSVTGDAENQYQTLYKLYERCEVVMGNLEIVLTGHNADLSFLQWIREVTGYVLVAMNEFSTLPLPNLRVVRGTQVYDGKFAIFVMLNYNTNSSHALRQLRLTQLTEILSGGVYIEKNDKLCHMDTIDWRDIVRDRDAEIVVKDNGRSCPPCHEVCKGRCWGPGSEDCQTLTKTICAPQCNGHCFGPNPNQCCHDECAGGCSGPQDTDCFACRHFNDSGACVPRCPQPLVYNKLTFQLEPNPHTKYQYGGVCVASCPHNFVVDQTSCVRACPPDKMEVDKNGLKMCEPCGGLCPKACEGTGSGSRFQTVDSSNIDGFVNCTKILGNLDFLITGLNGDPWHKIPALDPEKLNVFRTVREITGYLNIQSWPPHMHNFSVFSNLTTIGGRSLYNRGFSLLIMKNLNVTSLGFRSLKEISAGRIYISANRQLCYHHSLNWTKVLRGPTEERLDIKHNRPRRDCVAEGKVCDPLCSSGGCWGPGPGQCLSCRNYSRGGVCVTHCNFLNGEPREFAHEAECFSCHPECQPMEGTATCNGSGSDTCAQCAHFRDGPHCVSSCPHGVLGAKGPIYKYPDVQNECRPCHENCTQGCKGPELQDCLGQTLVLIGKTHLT
For B1, the Kd was 0.525 nM.
With B2 the Kd was 0.166 nM.
In the case of B3, the Kd is reported as 4.13 nM.
Work on B4 yielded a Kd of 5.83 nM.

Each binder was assayed against T2, HER3-ECD融合蛋白 (human) (assay: competition ELISA: Trx-HRG coated (10 μg/ml), HER3-ECD fusion protein 1 μg/ml pre-incubated with antibody, anti-hGH detection).
T2 construct: also called HER3-ECD fusion protein
Binder B1 has an IC50 of 2.3 nM.
B2 was tested, and the IC50 was 0.3 nM.
In the case of B3, the IC50 is reported as 1.5 nM.
B4 gave an IC50 of 2.8 nM.
